According to publication PMC11661448, “Molecular basis for plasma membrane recruitment of PI4KA by EFR3” (Science Advances, 2024):
Numbering of substitutions follows the chain as printed.

B1: EFR3A (721 to 791) (domain or fragment, human, UniProt Q14156 721-791, looked up)
chain: SNTEEITFEALKKAIDTSGMEEQEKEKRRLVIEKFQKAPFEEIAAQCESKANLLHDRLAQILELTIRPPPS
notes: EFR3A, human, residues 721 to 791; No tag cleavage is described for this protein; it was eluted from StrepTrap with desthiobiotin; also called EFR3A C terminus; EFR3A C terminal fragment; source: E. coli BL21 DE3 C41, purified (HisTrap, StrepTrap, SEC); not shown: His10, N-terminal, kept
B2: EFR3A (721 to 791) K732E (domain or fragment, human, UniProt Q14156 721-791, looked up)
chain: B1 chain with K12E
notes: EFR3A, human, residues 721 to 791; source: E. coli BL21 DE3 C41, purified (HisTrap, StrepTrap, SEC); not shown: His10, N-terminal, kept
B3: EFR3A (721 to 791) I763A (domain or fragment, human, UniProt Q14156 721-791, looked up)
chain: B1 chain with I43A
notes: as for B2
B4: His-MBP-EFR3A (721 to 791) (domain or fragment, human, UniProt Q14156 721-791, looked up)
chain: B1 chain
notes: source: E. coli BL21 DE3 C41, purified (HisTrap, StrepTrap, SEC); not shown: MBP, N-terminal, kept; His10, N-terminal, kept
B5: EFR3A (721 to 791) A734R (domain or fragment, human, UniProt Q14156 721-791, looked up)
chain: B1 chain with A14R
notes: as for B2
B6: EFR3A (721 to 791) F728A (domain or fragment, human, UniProt Q14156 721-791, looked up)
chain: B1 chain with F8A
notes: as for B2

Tests used:
Conditions in all cases: both partners purified
[1] = molecular target: T1, PI4KA/TTC7B/FAM126A ΔC (PI4KA complex) (human, UniProt P42356 1-2102; Q86TV6 1-843; Q9BYI3 1-308); assay: SEC; Superose 6 Increase in 150 mM NaCl, 20 mM imidazole pH 7.0, 5% glycerol, 0.5 mM TCEP; 7.19 uM PI4KA complex with 61.8 uM EFR3A, or 6.78 uM TTC7B-FAM126A with 102.3 uM EFR3A; peaks checked by SDS-PAGE
T1 construct: phosphatidylinositol 4 kinase III alpha (PI4KA), human, full length; TTC7B, human, full length; FAM126A, human, residues 1 to 308 (lacks the disordered C terminus); Dimer of heterotrimers; A His-Strep tag was cleaved with TEV protease; also called PI4KA-TTC7B-FAM126A (1 to 308); PI4KA-TTC7B-FAM126A complex; source: Sf9 (MultiBac baculovirus), co-expressed, purified (HisTrap, StrepTrap, TEV …)

TTC7B-FAM126A (1 to 308) [2] = molecular target: T2, TTC7B-FAM126A (1 to 308) (human, UniProt Q86TV6 1-843; Q9BYI3 1-308); assay: BLI; His-EFR3A (wild type or mutant) at 200 nM loaded on anti-penta-His tips, dipped in TTC7B-FAM126A (wild type or mutant) at 500 nM; 25°C, 20 mM HEPES pH 7.5, 150 mM NaCl, 0.01% BSA, 0.002% Tween-20; maximum response compared with wild type
T2 construct: N-terminal His10-2x Strep-TEV tag from the pOPT vector, cleaved with TEV; also called TTC7B-FAM126A ΔC; TTC7B-FAM126A dimer; source: E. coli BL21 DE3 C41, co-expressed, purified (HisTrap, StrepTrap, TEV cleavage, SEC)

TTC7B-FAM126A (1 to 308) [3] = molecular target: T2, TTC7B-FAM126A (1 to 308); assay: BLI; His-MBP-EFR3A (721 to 791) at 200 nM loaded on anti-penta-His tips, TTC7B-FAM126A titrated; His-MBP responses subtracted; 25°C, 20 mM HEPES pH 7.5, 150 mM NaCl, 0.01% BSA, 0.002% Tween-20; KD by one site specific nonlinear regression of the response against concentration

Binder	binding result (TTC7B-FAM126A (1 to 308) [2])	also measured
B1		binding result [1]: binds
B2	binds	
B3	binds	
B4		Kd (TTC7B-FAM126A (1 to 308) [3]): ~23.5 nM
B5	binds	
B6	binds	
